# Key:
# LRP6 [1] = molecular target: T1, LRP6 (Homo sapiens, UniProt O75581); test: Competition for 125I-Mesd binding to cell surface LRP6
# T1 construct: expressed in transfected cells; host or cells: human HT1080 cells, retroviral vector pLNCX2
# Protocol: To examine whether Mesd binds with high affinity to most members of the LDLR family at the cell surface, we performed cell surface ligand binding experiments with cells stably transduced with LRP6 cDNA. Human HT1080 cells, which express undetectable levels of LRP6, were transduced with a viral vector alone (pLNCX2) or with vector containing LRP6 cDNA (Li, Y., Oncogene 23: 9129-9135, 2004) and used for ^125I-Mesd binding (FIG. 1A). ^125I-Mesd (5 nM) reached maximal binding after 2 hours incubation at 4° C. with LRP6-expressing HT1080 cells (FIG. 1A).
# (§1) Cells (2×10^5) were seeded into 12-well dishes 1 day prior to assay. Ligand-binding buffer (minimal Eagle's medium containing 0.6% BSA with a different concentration of radioligand, 0.6 ml/well) was added to cell monolayers, in the absence or the presence of 500 nM unlabeled RAP or 500 nM unlabeled Mesd, followed with incubation for 0-4 hours at 4° C. Thereafter, overlying buffer containing unbound ligand was removed, and cell monolayers were washed and lysed in low-SDS lysis buffer (62.5 mM Tris-HCl pH 6.8, 0.2% SDS, 10% v/glycerol) and counted.
# We performed binding of 5 nM ^125I-Mesd (5 nM) to cell surface LRP6 in the presence of various concentrations of excess unlabeled RAP or 500 nM unlabeled Mesd (FIG. 8B). RAP inhibited ^125I-Mesd binding in a dose-dependent manner with ˜60% inhibition achieved with 500 nM RAP, whereas the same concentration of unlabeled Mesd inhibited >90% of ^125I-Mesd binding (FIG. 8B). […] The lower affinity of RAP to cell surface LRP6 may also contribute to its lower efficiency in inhibition of Mesd binding.
# In FIG. 8A, binding of ^125I-RAP (5 nM) to LRP6-transduced HT1080 cells and the control cells was carried out for 4 hours at 4° C. in the absence (total) or presence of 500 nM RAP, or 500 nM Mesd. In FIG. 8B, binding of^125I-Mesd (5 nM) to LRP6-transduced HT1080 cells was carried out for 2 hours at 4° C. in the absence (total) or presence of various concentrations of RAP or 500 nM Mesd. (C) LRP6-mediated ^125I-Mesd (5 nM) degradation was carried out for 4 hours at 37° C. in the absence or presence of 500 nM Mesd or 500 nM RAP. Values are the means of triple determinations with the s.d. indicated by error bars.
# In order to investigate the binding of Mesd polypeptide and an Mesd oligopeptide to either LRP5 or LRP6, binding assays were performed using ^125I-Mesd or ^125I-DKK1 (FIG. 10).
# LRP6 [2] = molecular target: T1, LRP6; test: 125I-DKK1 binding to LRP6; conditions: 500 nM unlabeled, 125I-DKK1 5 nM, 3 hours at 4° C.
# Protocol: as §1
# RAP is a receptor antagonist for members of the LDLR family, and is able to inhibit the binding of most known ligands of the LDLR family members. DKK1 is an LRP6-specific ligand and antagonist. […] In these experiments, Serum-free conditioned medium was harvested from HEK293 cells transiently transfected with cDNA for human Myc-DKK1 and allowed to bind to LRP6-transduced HT1080 cells (B,C) and control cells (A) in the absence (A,B) or presence (C) of 1 μM Mesd. Cell-surface-bound Myc-tagged DKK proteins were fixed and detected by immunofluorescence staining with anti-Myc antibody. (D) DKK1 binding to cell surface LRP6 is inhibited by Mesd. Binding of 125I-DKK1 (5 nM) to LRP6-transduced HT1080 cells or the control cells was carried out for 3 hours at 4° C. in the absence (total) or presence of 500 nM RAP or 500 nM Mesd. […]
# LRP6 [3] = molecular target: T1, LRP6; test: 125I-RAP binding to LRP6-transduced HT1080 cells; conditions: 500 nM unlabeled Mesd
# Protocol: as §1
# Receptor-associated protein (RAP) binds with high affinity to LRP, megalin, VLDLR and apoER2, and with a lower affinity to the LDLR (Bu, G., Int. Rev. Cytol. 209, 79-116. 2001). To determine whether RAP and Mesd bind to identical, overlapping, or different sites on the receptors, we performed binding and competition analysis of these two chaperones with HT1080 cells stably expressing LRP6.
# In FIG. 8A, binding of ^125I-RAP (5 nM) to LRP6-transduced HT1080 cells and the control cells was carried out for 4 hours at 4° C. in the absence (total) or presence of 500 nM RAP, or 500 nM Mesd. In FIG. 8B, binding of^125I-Mesd (5 nM) to LRP6-transduced HT1080 cells was carried out for 2 hours at 4° C. in the absence (total) or presence of various concentrations of RAP or 500 nM Mesd. […]
# T1 sequence (O75581 20-1613): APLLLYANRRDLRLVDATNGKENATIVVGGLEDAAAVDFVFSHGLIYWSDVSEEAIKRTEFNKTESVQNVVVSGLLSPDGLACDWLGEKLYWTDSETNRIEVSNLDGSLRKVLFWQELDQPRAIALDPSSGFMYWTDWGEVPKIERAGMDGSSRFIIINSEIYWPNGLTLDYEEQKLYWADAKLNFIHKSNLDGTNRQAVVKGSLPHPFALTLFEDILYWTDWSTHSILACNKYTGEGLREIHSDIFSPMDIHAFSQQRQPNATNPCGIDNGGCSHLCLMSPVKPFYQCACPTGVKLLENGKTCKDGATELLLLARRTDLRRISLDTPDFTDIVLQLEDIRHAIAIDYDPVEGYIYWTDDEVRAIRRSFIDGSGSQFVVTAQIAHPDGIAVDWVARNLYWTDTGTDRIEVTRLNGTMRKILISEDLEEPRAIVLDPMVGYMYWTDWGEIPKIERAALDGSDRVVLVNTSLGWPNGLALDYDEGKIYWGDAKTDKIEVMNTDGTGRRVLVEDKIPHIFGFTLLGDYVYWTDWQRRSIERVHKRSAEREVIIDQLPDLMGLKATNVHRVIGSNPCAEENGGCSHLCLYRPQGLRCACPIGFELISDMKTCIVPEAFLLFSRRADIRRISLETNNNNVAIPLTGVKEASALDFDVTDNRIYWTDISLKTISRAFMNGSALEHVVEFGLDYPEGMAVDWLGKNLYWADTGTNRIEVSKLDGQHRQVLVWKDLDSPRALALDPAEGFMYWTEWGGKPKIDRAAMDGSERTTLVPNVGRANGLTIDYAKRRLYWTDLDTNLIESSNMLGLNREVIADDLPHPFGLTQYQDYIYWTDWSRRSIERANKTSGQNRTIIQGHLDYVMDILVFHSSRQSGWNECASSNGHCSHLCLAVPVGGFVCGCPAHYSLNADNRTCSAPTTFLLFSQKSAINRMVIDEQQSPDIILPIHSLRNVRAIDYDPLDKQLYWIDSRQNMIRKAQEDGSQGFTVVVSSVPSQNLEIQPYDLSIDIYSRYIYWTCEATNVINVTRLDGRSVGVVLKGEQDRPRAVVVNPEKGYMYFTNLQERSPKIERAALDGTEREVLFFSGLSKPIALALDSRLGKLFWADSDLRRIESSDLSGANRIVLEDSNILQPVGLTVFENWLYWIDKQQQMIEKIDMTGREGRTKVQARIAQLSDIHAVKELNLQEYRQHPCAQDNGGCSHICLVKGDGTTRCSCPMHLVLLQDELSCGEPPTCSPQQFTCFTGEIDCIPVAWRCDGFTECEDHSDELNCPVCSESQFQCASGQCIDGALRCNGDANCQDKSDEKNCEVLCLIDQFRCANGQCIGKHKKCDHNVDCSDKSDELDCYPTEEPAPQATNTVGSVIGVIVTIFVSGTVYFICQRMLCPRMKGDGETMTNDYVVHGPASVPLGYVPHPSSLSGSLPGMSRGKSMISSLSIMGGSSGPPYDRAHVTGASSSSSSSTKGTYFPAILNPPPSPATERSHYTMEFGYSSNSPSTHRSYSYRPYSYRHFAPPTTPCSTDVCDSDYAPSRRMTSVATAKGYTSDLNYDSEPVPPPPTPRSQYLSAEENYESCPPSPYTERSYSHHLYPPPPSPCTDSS
molecule,measurement,setting,value
"Mesd: Recombinant full-length mouse Mesd expressed in E. coli, N-terminal polyhistidine tail, lacking the signal peptide (protein, left off: small tags and cut ends, Recombinant full-length mouse Mesd expressed in E. coli, N-terminal polyhistidine tail, lacking the signal peptide) ADTPGEATPPPRKKKDIRDYNDADMARLLEQWEKDDDIEEGDLPEHKRPSAPIDFSKLDPGKPESILKMTKKGKTLMMFVTVSGNPTEKETEEITSLWQGSLFNANYDVQRFIVGSDRAIFMLRDGSYAWEIKDFLVSQDRCAEVTLEGQMYPGKGGGSKEKNKTKPEKAKKKEGDRKPRASKEDNRAGSRREDL",Inhibition of 125I-Mesd binding to cell surface LRP6,"LRP6 [1]; 500 nM unlabeled competitor, 125I-Mesd 5 nM, 2 hours at 4° C.",> 90%
same,Effect of excess unlabeled protein on 125I-Mesd binding,"LRP6 [1]; 500 nM unlabeled, 125I-Mesd 5 nM, 4° C.",completely eliminated this binding
same,Reduction of binding of 125I-Mesd to LRP6,"LRP6 [1]; FIG. 10C, compared with LRP5",even greater reduction
same,Effect on increased 125I-DKK1 binding of LRP6-expressing HT1080 cells,LRP6 [2],abolished
same,Effect of excess unlabeled Mesd on the LRP6-dependent increase of 125I-RAP binding,LRP6 [3],abolished
